Laboratory results from PMC2845979 (Nature, 2009).

Target: the molecule itself
Assay: crystal structure

B1: minimal functional chicken ASIC1 construct (cASIC1mfc) (domain or fragment, UniProt Q1XA76 2-466, looked up)
chain: MDLKVDEEEVDSGQPVSIQAFASSSTLHGISHIFSYERLSLKRVVWALCFMGSLALLALVCTNRIQYYFLYPHVTKLDEVAATRLTFPAVTFCNLNEFRFSRVTKNDLYHAGELLALLNNRYEIPDTQTADEKQLEILQDKANFRNFKPKPFNMLEFYDRAGHDIREMLLSCFFRGEQCSPEDFKVVFTRYGKCYTFNAGQDGKPRLITMKGGTGNGLEIMLDIQQDEYLPVWGETDETSFEAGIKVQIHSQDEPPLIDQLGFGVAPGFQTFVSCQEQRLIYLPPPWGDCKATTGDSEFYDTYSITACRIDCETRYLVENCNCRMVHMPGDAPYCTPEQYKECADPALDFLVEKDNEYCVCEMPCNVTRYGKELSMVKIPSKASAKYLAKKYNKSEQYIGENILVLDIFFEALNYETIEQKKAYEVAGLLGDIGGQMGLFIGASILTVLELFDYAYEVIKHRLCR
  stoichiometry N: 3
